Measurements from US20090186027A1.

What was measured:
[1] = biological target: β-amyloid peptide 1-40 (UniProt P05067); assay: cell-based or functional assay
[2] = biological target: biotinylated peptide composed of amino acids 1-16 of the Aβ peptide (UniProt P05067); assay: phage ELISA screen of colonies after biopanning, negative control

Row | Substance | Percent Aggregation (ThT emission at 485 nm), plus 1 µM 10D5 [1] [%] | Percent Disaggregation (ThT), plus 1 µM 10D5 [1] [%] | absorbance at 492 nm (OD) [2] [OD]
1 | 10D5 (monoclonal antibody against the N terminus of Aβ peptide) | 61.4 | 38.6 | –
2 | helper phage M13KO7 | – | – | 0.003 to 0.005
